US20180318386A1, “PEPTIDES AND METHODS OF TREATING ENDOMETRIOSIS USING THE SAME” (BIOINCEPT, LLC, priority 2014, published 2018)

What was measured:
[1] = target: Calreticulin (human) (UniProt P27797); assay: PIF affinity resin pull-down, CD4+ cell lysate, LC-MS/MS count
[2] = target: Actin, cytoplasmic 1 (human) (UniProt P60709); assay: as above
[3] = target: Serine/arginine-rich-splicing factor 2 (human) (UniProt Q01130); assay: as above
[4] = target: Thrombospondin-4 (human) (UniProt P35443); assay: as above
Chain of Thrombospondin-4 (human) (P35443 27-961 limits assumed): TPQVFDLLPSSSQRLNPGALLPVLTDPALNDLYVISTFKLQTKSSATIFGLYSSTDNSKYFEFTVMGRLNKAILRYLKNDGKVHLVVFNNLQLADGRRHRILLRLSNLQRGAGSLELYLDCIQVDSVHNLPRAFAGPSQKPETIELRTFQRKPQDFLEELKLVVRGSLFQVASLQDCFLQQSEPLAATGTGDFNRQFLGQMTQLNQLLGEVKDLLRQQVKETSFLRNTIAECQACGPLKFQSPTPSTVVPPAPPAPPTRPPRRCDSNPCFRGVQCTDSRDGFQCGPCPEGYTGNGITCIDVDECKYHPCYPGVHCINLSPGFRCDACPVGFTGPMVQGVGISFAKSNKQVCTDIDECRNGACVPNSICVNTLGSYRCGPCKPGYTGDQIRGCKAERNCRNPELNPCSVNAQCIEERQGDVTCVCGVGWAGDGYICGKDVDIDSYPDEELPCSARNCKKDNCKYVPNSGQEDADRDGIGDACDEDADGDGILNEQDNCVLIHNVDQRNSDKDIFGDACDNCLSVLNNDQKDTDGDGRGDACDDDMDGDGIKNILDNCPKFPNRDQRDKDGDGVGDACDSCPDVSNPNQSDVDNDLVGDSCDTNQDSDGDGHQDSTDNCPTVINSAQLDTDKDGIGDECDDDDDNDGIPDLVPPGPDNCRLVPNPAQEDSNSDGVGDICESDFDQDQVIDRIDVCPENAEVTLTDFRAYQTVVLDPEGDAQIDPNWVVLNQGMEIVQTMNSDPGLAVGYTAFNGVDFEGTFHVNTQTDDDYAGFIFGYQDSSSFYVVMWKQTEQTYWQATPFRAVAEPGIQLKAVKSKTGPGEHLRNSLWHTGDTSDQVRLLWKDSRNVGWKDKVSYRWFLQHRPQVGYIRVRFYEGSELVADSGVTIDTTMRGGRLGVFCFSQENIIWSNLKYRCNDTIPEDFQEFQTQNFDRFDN

[5] = target: Tropomyosin alpha-4 chain (human) (UniProt P67936); assay: as above
Chain of Tropomyosin alpha-4 chain (human) (P67936 2-248 limits assumed): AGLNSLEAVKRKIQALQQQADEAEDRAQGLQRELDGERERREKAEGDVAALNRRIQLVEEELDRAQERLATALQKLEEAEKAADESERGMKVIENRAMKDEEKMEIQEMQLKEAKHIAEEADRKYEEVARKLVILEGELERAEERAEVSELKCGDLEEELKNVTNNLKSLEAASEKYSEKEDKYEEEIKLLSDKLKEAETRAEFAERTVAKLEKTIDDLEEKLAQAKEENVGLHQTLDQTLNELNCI

[6] = target: 14-3-3 protein zeta/delta (human) (UniProt P63104); assay: as above
[7] = target: Serum deprivation-response protein (human) (UniProt O95810); assay: as above
Chain of Serum deprivation-response protein (human) (O95810 2-425 limits assumed): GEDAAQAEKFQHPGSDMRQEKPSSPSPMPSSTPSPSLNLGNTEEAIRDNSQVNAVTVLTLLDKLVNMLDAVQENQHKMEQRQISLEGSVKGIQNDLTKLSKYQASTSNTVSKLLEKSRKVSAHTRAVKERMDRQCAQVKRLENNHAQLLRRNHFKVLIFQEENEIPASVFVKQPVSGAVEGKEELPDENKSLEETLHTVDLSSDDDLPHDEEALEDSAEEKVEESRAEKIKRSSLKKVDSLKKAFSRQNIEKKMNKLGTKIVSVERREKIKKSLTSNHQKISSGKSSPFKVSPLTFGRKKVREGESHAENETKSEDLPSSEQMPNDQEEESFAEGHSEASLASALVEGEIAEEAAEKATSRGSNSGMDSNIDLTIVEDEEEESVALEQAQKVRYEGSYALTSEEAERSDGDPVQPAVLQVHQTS

[8] = target: Calmodulin (human) (UniProt P0DP23); assay: as above
[9] = target: Isoform 2 of Heat shock protein HSP 90-alpha (human) (UniProt P07900); assay: as above
[10] = target: Thrombospondin-1 (human) (UniProt P07996); assay: as above
[11] = target: Cofilin-1 (human) (UniProt P23528); assay: as above
Chain of Cofilin-1 (human) (P23528 2-166 limits assumed): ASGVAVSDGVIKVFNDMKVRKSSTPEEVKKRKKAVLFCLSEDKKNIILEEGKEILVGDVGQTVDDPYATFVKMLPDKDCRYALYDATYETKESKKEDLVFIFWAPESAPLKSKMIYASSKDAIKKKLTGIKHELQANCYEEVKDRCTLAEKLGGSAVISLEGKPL

[12] = target: Nucleolin (human) (UniProt P19338); assay: as above
[13] = target: Isoform 11 of Titin (human) (UniProt Q8WZ42); assay: as above
[14] = target: Serum albumin (human) (UniProt P02768); assay: as above
[15] = target: Thymosin alpha-1 (human) (UniProt P06454); assay: as above
Chain of Thymosin alpha-1 (human) (P06454 other isoform, or with tags, fused parts or gaps limits assumed): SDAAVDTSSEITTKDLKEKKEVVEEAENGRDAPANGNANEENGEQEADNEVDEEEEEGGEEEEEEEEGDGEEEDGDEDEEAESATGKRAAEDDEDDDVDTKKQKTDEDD

[16] = target: Thrombin light chain (human) (UniProt P00734); assay: as above
[17] = target: Serine/arginine-rich-splicing factor 1 (human) (UniProt Q07955); assay: as above
Chain of Serine/arginine-rich-splicing factor 1 (human) (Q07955 2-248 limits assumed): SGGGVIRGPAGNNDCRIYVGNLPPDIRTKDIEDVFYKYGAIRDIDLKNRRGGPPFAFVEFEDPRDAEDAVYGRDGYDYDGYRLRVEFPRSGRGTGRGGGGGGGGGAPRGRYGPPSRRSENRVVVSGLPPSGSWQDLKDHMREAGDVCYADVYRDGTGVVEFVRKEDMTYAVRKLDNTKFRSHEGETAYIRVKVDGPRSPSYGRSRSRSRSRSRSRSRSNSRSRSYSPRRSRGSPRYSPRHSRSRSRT

[18] = target: Hepatoma-derived growth factor (human) (UniProt P51858); assay: as above
Chain of Hepatoma-derived growth factor (human) (P51858 whole entry): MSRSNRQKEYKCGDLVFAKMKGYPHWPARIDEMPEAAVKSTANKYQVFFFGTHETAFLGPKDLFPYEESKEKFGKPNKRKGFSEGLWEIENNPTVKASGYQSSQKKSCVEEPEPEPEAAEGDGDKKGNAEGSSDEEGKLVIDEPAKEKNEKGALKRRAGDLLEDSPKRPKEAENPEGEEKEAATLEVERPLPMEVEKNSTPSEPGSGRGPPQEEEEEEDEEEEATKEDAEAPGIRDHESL

[19] = target: Acidic leucine-rich nuclear phosphoprotein 32 family member A (human) (UniProt P39687); assay: as above
[20] = target: Glucosidase 2 subunit beta (human) (UniProt P14314); assay: as above
[21] = target: Talin-1 (human) (UniProt Q9Y490); assay: PIF affinity resin pull-down, CD8+ cell lysate, LC-MS/MS count
Chain of Talin-1 (human) (Q9Y490 whole entry): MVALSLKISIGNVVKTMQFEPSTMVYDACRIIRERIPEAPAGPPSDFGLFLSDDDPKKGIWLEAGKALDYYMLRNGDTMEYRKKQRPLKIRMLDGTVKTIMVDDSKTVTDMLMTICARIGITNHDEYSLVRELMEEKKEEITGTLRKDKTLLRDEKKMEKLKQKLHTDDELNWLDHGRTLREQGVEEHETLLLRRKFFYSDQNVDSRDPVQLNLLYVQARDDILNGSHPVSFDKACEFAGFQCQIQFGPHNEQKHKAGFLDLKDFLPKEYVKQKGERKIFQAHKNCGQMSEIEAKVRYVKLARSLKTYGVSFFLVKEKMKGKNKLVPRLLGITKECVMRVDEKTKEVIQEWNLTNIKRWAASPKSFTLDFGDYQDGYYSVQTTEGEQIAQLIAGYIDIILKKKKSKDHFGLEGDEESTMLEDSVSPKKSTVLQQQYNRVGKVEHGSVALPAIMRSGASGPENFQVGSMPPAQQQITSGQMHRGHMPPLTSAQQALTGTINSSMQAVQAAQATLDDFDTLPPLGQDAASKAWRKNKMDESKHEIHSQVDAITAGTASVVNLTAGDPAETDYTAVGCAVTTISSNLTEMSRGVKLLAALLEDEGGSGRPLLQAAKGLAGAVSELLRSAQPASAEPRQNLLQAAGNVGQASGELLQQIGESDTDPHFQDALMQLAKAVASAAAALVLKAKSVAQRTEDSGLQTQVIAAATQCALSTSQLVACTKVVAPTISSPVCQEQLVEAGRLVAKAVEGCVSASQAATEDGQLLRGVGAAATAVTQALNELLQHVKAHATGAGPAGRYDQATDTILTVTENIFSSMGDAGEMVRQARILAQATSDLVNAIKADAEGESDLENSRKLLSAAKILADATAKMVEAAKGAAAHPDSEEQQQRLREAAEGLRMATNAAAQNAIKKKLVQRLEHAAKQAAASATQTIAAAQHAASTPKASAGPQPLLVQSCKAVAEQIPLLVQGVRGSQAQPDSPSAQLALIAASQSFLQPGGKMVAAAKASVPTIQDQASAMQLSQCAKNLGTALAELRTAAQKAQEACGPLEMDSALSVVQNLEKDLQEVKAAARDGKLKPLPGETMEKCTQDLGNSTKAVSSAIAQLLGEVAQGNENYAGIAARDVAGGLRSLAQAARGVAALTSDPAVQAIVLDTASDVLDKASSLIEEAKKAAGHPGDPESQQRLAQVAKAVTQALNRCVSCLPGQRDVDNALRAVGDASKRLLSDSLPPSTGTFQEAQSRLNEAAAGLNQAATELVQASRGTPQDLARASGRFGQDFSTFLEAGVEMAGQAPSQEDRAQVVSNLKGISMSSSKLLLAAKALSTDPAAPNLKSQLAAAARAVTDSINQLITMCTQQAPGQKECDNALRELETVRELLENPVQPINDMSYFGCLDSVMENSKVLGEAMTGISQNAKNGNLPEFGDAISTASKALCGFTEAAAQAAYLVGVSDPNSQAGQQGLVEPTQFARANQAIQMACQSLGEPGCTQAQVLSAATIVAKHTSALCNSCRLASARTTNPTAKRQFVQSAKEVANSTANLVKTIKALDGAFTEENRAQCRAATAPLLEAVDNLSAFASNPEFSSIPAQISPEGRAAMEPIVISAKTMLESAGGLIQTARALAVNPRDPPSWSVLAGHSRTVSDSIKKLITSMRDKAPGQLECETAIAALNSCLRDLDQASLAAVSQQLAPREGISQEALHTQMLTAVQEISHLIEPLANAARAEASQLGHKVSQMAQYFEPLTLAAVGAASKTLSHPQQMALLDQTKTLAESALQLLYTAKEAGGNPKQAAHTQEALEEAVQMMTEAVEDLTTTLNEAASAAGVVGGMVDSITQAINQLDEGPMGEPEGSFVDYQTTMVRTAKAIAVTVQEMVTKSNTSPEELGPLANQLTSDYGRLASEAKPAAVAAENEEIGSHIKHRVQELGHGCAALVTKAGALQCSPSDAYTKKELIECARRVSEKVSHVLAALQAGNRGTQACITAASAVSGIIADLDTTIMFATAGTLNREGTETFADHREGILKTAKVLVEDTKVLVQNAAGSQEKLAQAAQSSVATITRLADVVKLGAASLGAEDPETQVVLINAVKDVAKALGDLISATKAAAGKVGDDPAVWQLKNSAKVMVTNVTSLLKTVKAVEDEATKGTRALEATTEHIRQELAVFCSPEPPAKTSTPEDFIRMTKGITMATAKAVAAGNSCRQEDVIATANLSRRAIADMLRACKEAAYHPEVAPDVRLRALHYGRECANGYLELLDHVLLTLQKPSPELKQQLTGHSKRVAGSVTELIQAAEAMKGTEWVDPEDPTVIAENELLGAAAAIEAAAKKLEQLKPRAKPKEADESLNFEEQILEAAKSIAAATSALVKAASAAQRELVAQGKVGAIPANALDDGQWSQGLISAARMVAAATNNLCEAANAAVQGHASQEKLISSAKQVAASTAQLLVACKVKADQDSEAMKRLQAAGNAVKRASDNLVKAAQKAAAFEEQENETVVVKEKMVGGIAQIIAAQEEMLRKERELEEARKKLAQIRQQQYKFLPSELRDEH

[22] = target: Thrombospondin-4 (human) (UniProt P35443); assay: as above
[23] = target: Calmodulin (human) (UniProt P0DP23); assay: as above
[24] = target: Hepatoma-derived growth factor (human) (UniProt P51858); assay: as above

Substance: PIF15 affinity resin (Cys-C6 spacer-PIF15 conjugated to agarose) (peptide)
- Ave [1]: 4
- Inject 1 [1]: 4
- Inject 2 [1]: 4
- Inject 3 [1]: 4
- Ave [2]: 2
- Inject 1 [2]: 2
- Inject 2 [2]: 2
- Inject 3 [2]: 2
- Ave [3]: 2
- Inject 1 [3]: 1
- Inject 2 [3]: 2
- Inject 3 [3]: 3
- Ave [4]: 3
- Inject 1 [4]: 3
- Inject 2 [4]: 3
- Inject 3 [4]: 3
- Ave [5]: 4
- Inject 1 [5]: 4
- Inject 2 [5]: 4
- Inject 3 [5]: 4
- Ave [6]: 3
- Inject 1 [6]: 3
- Inject 2 [6]: 3
- Inject 3 [6]: 3
- Ave [7]: 2
- Inject 1 [7]: 2
- Inject 2 [7]: 2
- Inject 3 [7]: 2
- Ave [8]: 3
- Inject 1 [8]: 3
- Inject 2 [8]: 3
- Inject 3 [8]: 3
- Ave [9]: 4
- Inject 1 [9]: 4
- Inject 2 [9]: 4
- Inject 3 [9]: 4
- Ave [10]: 6
- Inject 1 [10]: 6
- Inject 2 [10]: 6
- Inject 3 [10]: 6
- Ave [11]: 1
- Inject 1 [11]: 1
- Inject 2 [11]: 1
- Inject 3 [11]: 1
- Ave [12]: 2
- Inject 1 [12]: 2
- Inject 2 [12]: 2
- Inject 3 [12]: 2
- Ave [13]: 2
- Inject 1 [13]: 2
- Inject 2 [13]: 2
- Inject 3 [13]: 2
- Ave [14]: 8
- Inject 1 [14]: 4
- Inject 2 [14]: 7
- Inject 3 [14]: 12
- Ave [15]: 5
- Inject 1 [15]: 4
- Inject 2 [15]: 5
- Inject 3 [15]: 7
- Ave [16]: 3
- Inject 1 [16]: 3
- Inject 2 [16]: 3
- Inject 3 [16]: 3
- Ave [17]: 2
- Inject 1 [17]: 2
- Inject 2 [17]: 2
- Inject 3 [17]: 2
- Ave [18]: 3
- Inject 1 [18]: 3
- Inject 2 [18]: 3
- Inject 3 [18]: 3
- Ave [19]: 1
- Inject 1 [19]: 1
- Inject 2 [19]: 1
- Inject 3 [19]: 1
- Ave [20]: 1
- Inject 1 [20]: 1
- Inject 2 [20]: 1
- Inject 3 [20]: 1
- Ave [21]: 1
- Inject 1 [21]: 1
- Inject 2 [21]: 1
- Inject 3 [21]: 1
- Ave [22]: 3
- Inject 1 [22]: 3
- Inject 2 [22]: 3
- Inject 3 [22]: 3
- Ave [23]: 2
- Inject 1 [23]: 2
- Inject 2 [23]: 2
- Inject 3 [23]: 2
- Ave [24]: 1
- Inject 1 [24]: 1
- Inject 2 [24]: 1
- Inject 3 [24]: 1
